Drawing on a protein production outcome set (Wang et al. 2014), this text covers protein production for 23 sequences.

This data set can be described thus: label from the status in PepcDB records.
As to “MSKAVLTTKVTPGYKDLPEVRYHFPRTYLNQVRQAVGDYILYYEPRRTTVELSSFGGRQSYFGVARVVDLVEDKDQADHYYALVDDYLDFDRPVPFVEGGHYYESALRKSDGSTNKGAFGRAVRLIPDAEFDQIWKAGFAPILGEETSRHQPRQFEISEPTVPFERPIIEMTISRPFRERSFMYNVRAAYENRCAMTGLRLINGGGRPEVQAAHIQPVAEKGPDSVRNGLALSGTVHWMFDRGLISIGDDYKILTAENHVPDDALRLLNHSRTINLPNDTAFYPNALFLKFHRDKIFKG”, the protein production result is “failed”.
For the sequence “MSKDFDLIIRNAYLSEKDSVYDIGIVGDRIIKIEAKIEGTVKDEIDAKGNLVSPGFVDAHTHMDKSFTSTGERLPKFWSRPYTRDAAIEDGLKYYKNATHEEIKRHVIEHAHMQVLHGTLYTRTHVDVDSVAKTKAVEAVLEAKEELKDLIDIQVVAFAQSGFFVDLESESLIRKSLDMGCDLVGGVDPATRENNVEGSLDLCFKLAKEYDVDIDYHIHDIGTVGVYSINRLAQKTIENGYKGRVTTSHAWCFADAPSEWLDEAIPLYKDSGMKFVTCFSSTPPTMPVIKLLEAGINLGCASDNIRDFWVPFGNGDMVQGALIETQRLELKTNRDLGLIWKMITSEGARVLGIEKNYGIEVGKKADLVVLNSLSPQWAIIDQAKRLCVIKNGRIIVKDEVIVA”, the protein production result is listed as “not failed”.
Next, “MSKELLGVSAVGLMVLGEFCAIYSEVVVARLAHSGNTSGAELALPVLIMCLGGICLLAAYWLGYVAVGDIWIITVVSVTSLLLLEPLVIWALFQQAPGRGALIGFCLGALGMLSAVFL”: “failed”.
With “MSKFTDRIKNVFTVDYDDYDEDYYDDYEDDDMGLEPEKPEKKERATKSRSERFSARRAATRSDDDIIDDYDEVTAEHEEEPAPHVKTRATARAVKNSRSSRNHKVVPMKSSSEMEVCVIKPSYYENTRDIIDTLLEGKSVVLNLEGMKLDLAQRIVDSVSGGCYAIQGNLQKISGYIYLVTPHSVDITGDFQDLVHDSSDYSSTAYSRRNY”, the protein production result is “failed”.
Turning to “MSKGRDILTKTIILALREVAPGLEAVLEAHLRATLNSGIELAYDDPQKFKEAVSKLFGEYSARLLEMVIISKLKGRLGEDIEANSLEELVSEIRKIYGE”, the protein production entry is recorded as “not failed”.
Next, “MSKHVNWSGVFPAVTTQFNADFSVNLEETHTVISNLVRDGVSGLVVCGSVGENTSLTIEEKMAVTEVAKDASGGRVPVICGIAEFTSAGAAKVAKAVERVGVDGIMVMPALVYSSKPHETAEHFRSVASGTDLPVMVYNNPPIYRNDVTPDILVSLADCENIVCFKDSSGDTRRFIDVRNQVGERFILFAGLDDVVLESVAVGAQGWISGMSNVFPKEGETIFRLARAGRFAEAMPIYEWLMPILHLDARPDLVQCIKLCEQLAGRGSALTRPPRLALRGADREHVERIMAKALA”: “failed”; “MSKIFVNPSAIRAGLADLEMAEETVDLINRNIEDNQAHLQGEPIEVDNLPEDMGRLHLDDGKSPNPGEMAKVGEGKYREDFQMDEGEDPSLLFQSYLDNVGVQIVRQIRSGERFLKIWSQTVEEIISYVAVNFPNPPGKSSEDKSTQTTGRELKKETTPTPSQRESQSSKARMAAQTASGPPALEWSATNEEDDLSVEAEIAHQIAESFSKKYKFPSRSSGILLYNFEQLKMNLDDIVKEAKNVPGVTRLARDGSKLPLRCVLGWVALANSKKFQLLVESNKLSKIMQDDLNRYTSC”: “not failed”; “MSKILLTGASGYIGSHLKNKLKKDHEVIAISRNTHNKTDEENVTWKSADLFDLDEITKVMKDVDTAIYLVHSMMPSAKLTQASFEDMDALLADNFARAAQKQGVKHIVYMSGLIPENDELSAHLRSRLECEKILGDYGIPVSTLRAGLIIGAKGSSYPILKRLVKRLPAMVLPSWAYNKIAPVAIDDVIDGLAALVNRTPKDNEAIDITGPEVMNYKTLIQRTANVLDKRLPMLDLPIIPIIVSRYWVQLISNVPKEMVYPLMNSLTHDMVPHRKRVVSNLSVGNITFEDSVKRALREEQKTSKKKSDSKNSQSFGRMHQEIKDVRAITRFKIPEGYSIKDVTKEYAKFINNITLHLVKGTINEREFNMNLPFINKFILKMERDEADSTEDMVVYNIVGGDLAHSNDGGNARFEFRRIRNTNEGIIALQEYEPTLPWVVYKLTQAKAHKTVMNIFKNKMARLAQQKNVKDETYMSNRVTIGVTVASAFVIGSAVGFQLFKKHQIKKNTMSNAEL”: “failed”.
Consider “MSKKIILITGASSGFGRLTAEALWSRPPGIRLDARHCRPQRVQCSPALPGTMTLTCAPWSSTSSRRSVDRAIDQIIGEDGRIDVLIHNAPHGVRTRRSIHARAVRRALRYQCAPNASTGRRCRTCAGKSMGFSWISSSSSAGGTPPYLAPYFAAKAHGCHRCAVRTAVALGHRDVDHRPVPSRAAPITSPIPAYRTTTPAAEYEAGPNAGLGEEIKKAFAAIVAGRRCVTGCRCHCSGCGHRVRQARSGCTSTRPKTAPMWDSAFWTGRAEMLHRVGLSDLLKPRALA”, for which the protein production entry was “not failed”.
For the sequence “MSKKKILIFISVILIIFGGVYLKMKYDEKAKQKEIYYKEQQERITLYLKYNTKKPNTIKSVHFTSLEQGPMGDAIIEGYINNNKEDEFVAFASPENNYQFGGGLTADVKIFKLLKPANESRSPNEIKKDLDKKKERLEHHHHHH”, the protein production entry is on record as “not failed”.
For the sequence “MSKKSGLSFLWLSAVAFVIDLLTKYIVVQKFDLYESVNVLPVFNLTYVRNYGAAFSFLADHSGWQQYFFILLALAISGMLVYFLAKNNAEQKIQNSAYALIIGGALANMVDRAYNGFVVDFFDFYWDIYHYPVFNIADIAICIGAGLLVLDAFKSEKKKVQDKQVEKCGQK”, the protein production entry is “failed”.
Regarding “MSKPLYVFDMDETLINADCAMIWNAFLVEKGIATQPNFIEEDQRLMALYAEGKMDMEDYLEFCMAPLADMPIAHVLMLVEECVEHHILPKQFEQSKTLIAQLDRDDIDMVIISASVTFLVEAVGRRLGIPVALGIDLVEKHGSYSAEIAGVPSYREGKVIRLKAWLDAQPESYSEVHFYTDSINDLPLCEYADYAYLVNPCPQLKARADKANWTLLRWN”, the protein production entry was “failed”.
In the case of “MSKQAVYKIELKIFGYFILILMLSTITVILMLIVKNALEEVLIRYNENTLMTAKFLFCDVKKFSIVMYFFVFVIWSHLLLKRKVQYFINLSESTSEIAKGNFKVIIPVKREDEFGNLAKGINEIVEKFNFILKKEKEIEKTKIDLITNVSHDLRTPLTSILGYLELVENDQYKDEVALWYYIDIAYNKTKRLKVLIDDLFQLTTLNEHSMKLCKKEINIAELLKQLIGEYMLNFQKAGIRCRLKLTDEKLYVLGDAVLLIRAFENIIINCIKYSKTSEIMDVSVQRKGDMAVLNFINYGEPIPAIDIPYIFQRFYRVDKSRSDKLGGSGLGLAIAKNIIDITGGNIEVESDTTRTNFKIVLPCYGK”, the protein production entry is recorded as “failed”.
To “MSKQLLALNIDGALLRSNGKIHQATKDAIEYVKKKGIYVTLVTNRHFRSAQKIAKSLKLDAKLITHSGAYIAEKIDAPFFEKRISDDHTFNIVQVLESYQCNIRLLHEKYSIGNKKKVNSNLLGKALIHPSDPIFYPVQFVESLSDLLMDEPVSAPVIEVYTEHDIQHDITETITKAFPAVDVIRVNDEKLNIVPKGVSKEAGLALVASELGLSMDDVVAIGHQYDDLPMIELAGLGVAMGNAVPEIKRKADWVTRSNDEQGVAYMMKEYFRMQQRKGFLDKFHMKR” belongs “not failed”; to “MSKRSEVLEQFHGGLKNLELQTKRRMGLWGDPKENEEQTLFLEEIENELKQLENKENLKADNNTEFKEENQDTKENQPNDLFSLPLPTQTTINGIKEFVEEPVIETEKKETSQNEPIQEKKERIFKNFFSRIGFDKSIAPTMLFEEVRDASVIYHLEKKLGDYIFYVACFFFGTTALLIILLTILLPLKQKEPYLVQFSNNKENFALVQKADSSITANKALIRSLVGAYVLNRESITHIEQHEKMRQNTIKEQSSNEVWYEFEKLIAHYDSIYTNPLLTRKVKIANIYLDKDLAYIDIEVSLYHSGELESLKRYKVVMSFEFKKQEINFDSMSLNPTGFMVTSYDVTEIAIVNYPTAKAIGLFLAS”, “failed”; to “MSKTDTAAVEATEENSNETTSDAATSSSGEKEAEFDNKIEADRSRRFDFLLKQTEIFTHFMTNSAKSPTKPKGRPKKIKDKDKEKDVADHRHRKTEQEEDEELLAEDSATKEIFRFDASPAYIKSGEMRDYQIRGLNWMISLYENGINGILADEMGLG”, “failed”.
In the case of “MSKTLKEITDQKNELKKFFENFVLNLEKTEIFSEIQKNLTDEVLFVGCGSSYNLALTISYYFERVLKIRTKAIPAGEVAFQKIPDLEERGLAFLFSRTGNTTEVLLANDVLKKRNHRTIGITIEEESRLAKESDLPLVFPVREEAIVMTKSFSMILLSLMFLADKIAGNSTERFSELVGYSPEFFDISWKVIEKIDLKEHDHFVFLGMSEFFGVSLESALKCIEMSLTFSEAYSTLEYRHGPKALVKKGTLVFMQKVSGMDEQEKRLRKELESLGATVLEVGEGGDIPVSNDWKSAFLRTVPAQILGYQKAISRGISPDKPPHLEKTVVL”, the protein production entry is on record as “not failed”.
As to “MSKVCQVTGKRPVVGNNVSHANNKTKRRFEPNLHHHRFWLESEKRFVRLRLTTKGMRIIDKLGIEKVVADLRAQGQKI”, the protein production entry was “failed”.
As to “MSKVFVNISLSLDGFMAPEGMDMAHFSDPTYKNWGAKWGALMAWALSQQYLREKLKLGTGGETGPVNDMVRHTFERTGAHIMGKRMFEGGERGWPEEAPFHTPVYVLTHERRNPWVRPGGTTFYFVNDGPEQALALAREAAGERDIRISGGANVIQQYLNLGLVDELEIALIPVIFGGGRRLFENLHEPLPQFRIDRVLASPTATHLRYVRL”, the protein production result is given as “not failed”.
Next, “MSKVIIPKIVGHRGVGKEGLAPENTLRSFVLCMERNIPYIETDLRVCKTGEIVLFHGTPEGTIPFYKDGTSRIGDLSLEELKRLDVGGGHTIPSLEELFVAIEEQKFNLKLNLELKGEEWKRKESGDHQRLLLLVEKYHMQERVDYCSFHHEALAHLKALCPDVKITYLFNYMGQPTPLDFVEQTQKACYGDANGVSMLFHYLTKEQVCTAHEKGLSVTVWMPWIFDDSEEDWKKCLELQVDLICSNYPFGLMNFLSNISE”: “not failed”; “MSKVNQQDIDKLIELVGGRGNIATVSHCITRLRFVLNDPAIARPKEIEQLRMVKGCFTNAGQFQVVIGTEVGDYYKALLATTGQTSADKEQVKQAARQNM”: “failed”; “MSLAARLIRSSRSNTFGIITDYVSTTPYSVDIVRGIQDWANANGKTILIANTGGSSEREVEIWKMFQSHRIDGVLYVTMYRRIVDPESGDVSIPTVMINCRPQTRELLPSIEPDDYQGARDLTRYLLERGHRRIGYIRLNPILLGAELRLDAFRRTTSEFGLTENDLSISLGMDGPVGAENNYVFAAATEMLKQDDRPTAIMSGNDEMAIQIYIAAMALGLRIPQDVSIVGFDDFRTVTMALKPELTTAALPYYDLGREGAKWLNDLIAGEKIYPGSRVVSCKLVERSSAAFGEGHHHHHH”: “not failed”.
As for “MSLAEVNPMSKPLVRWPINPLRTAVIVVDMQKVFCEPTGALYVKSTADIVQPIQKLLQAARAAQVMVIYLRHIVRGDGSDTGRMRDLYPNVDQILARHDPDVEVIEALAPQSDDVIVDKLFYSGFHNTDLDTVLRARDVDTIIVCGTVTNVCCETTIRDGVHREYKVIALSDANAAMDYPDVGFGAVSAADVQRISLTTIAYEFGEVTTTAEVIRRIESAYPHGREGHHHHHH”, the protein production result was “not failed”.
